Experimental data from patent publication US20080280313.

How the values were obtained:
[1] = system: CKI phosphopeptide substrate KRRRALS(p)VASLPGL (New England Biolabs)
[2] = system: CKI substrate DDDEESITRR (Promega)
[3] = system: CKII substrate RRADDSDDDDD (Calbiochem)
[4] = system: CKII substrate RRREEETEEE (New England Biolabs)
[5] = system: CaM kinase II substrate (281-291) MHKNETVECLK (Calbiochem)
[6] = system: Syntide-2 substrate PLARTLSVAGLPGKK (Calbiochem)
[7] = system: kemptide LRRASLG (Promega)
[8] = target: partially dephosphorylated α-casein (Sigma) (UniProt P02662)
β-casein (Sigma) = β-casein (Sigma) (UniProt P02666)
Chain of β-casein (Sigma) (P02666 16-224): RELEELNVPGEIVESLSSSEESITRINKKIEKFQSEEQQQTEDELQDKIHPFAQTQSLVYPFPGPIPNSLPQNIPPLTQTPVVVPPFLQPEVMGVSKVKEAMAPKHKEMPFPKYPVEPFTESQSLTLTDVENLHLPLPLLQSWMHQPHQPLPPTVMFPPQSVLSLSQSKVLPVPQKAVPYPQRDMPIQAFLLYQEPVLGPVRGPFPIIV

Chain of partially dephosphorylated α-casein (Sigma) (P02662 16-214): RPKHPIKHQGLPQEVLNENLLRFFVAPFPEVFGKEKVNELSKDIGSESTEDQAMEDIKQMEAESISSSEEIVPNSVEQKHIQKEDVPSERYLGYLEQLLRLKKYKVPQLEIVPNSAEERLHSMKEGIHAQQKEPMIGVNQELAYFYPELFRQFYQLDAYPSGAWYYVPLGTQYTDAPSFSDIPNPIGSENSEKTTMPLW

Row | Substance | Km(app) [1] | kinase activity with peptide substrate [2] | kinase activity with peptide substrate [3] | kinase activity with peptide substrate [4] | kinase activity with peptide substrate [5] | kinase activity with peptide substrate [6] | kinase activity with peptide substrate [7] | Km(app) [8] | Km(app) (β-casein (Sigma)) | Vmax(app) (nmole min^-1 mg^-1) [1] | Vmax(app) (nmole min^-1 mg^-1) [8] | Vmax(app) (nmole min^-1 mg^-1) (β-casein (Sigma))
1 | native TgCKIα, partially purified from Toxoplasma gondii tachyzoites | 20 µM | failed to show concentration dependent kinase activity | failed to show concentration dependent kinase activity | failed to show concentration dependent kinase activity | failed to show concentration dependent kinase activity | failed to show concentration dependent kinase activity | failed to show concentration dependent kinase activity | 3 µM | 13 µM |  |  | 
2 | FLAGTgCKIα, N-terminal FLAG epitope tagged Toxoplasma gondii casein kinase I alpha | 80 µM | failed to show concentration dependent kinase activity | failed to show concentration dependent kinase activity | failed to show concentration dependent kinase activity | failed to show concentration dependent kinase activity | failed to show concentration dependent kinase activity | failed to show concentration dependent kinase activity | 4 µM | 30 µM | 26 | 8 | 8
